PMC3199733, “Expression, purification, electron microscopy, N-glycosylation mutagenesis and molecular modeling of human P2X4 and Dictyostelium discoideum P2XA” (Biochimica et Biophysica Acta, 2011)
Several values for one entry are separate records, joined by “and”; a condition that tells them apart may be missing. Identical values can stand only once.

B1: human P2X4-(His)10 (receptor, UniProt Q99571 1-388, looked up)
chain: MAGCCAALAAFLFEYDTPRIVLIRSRKVGLMNRAVQLLILAYVIGWVFVWEKGYQETDSVVSSVTTKVKGVAVTNTSKLGFRIWDVADYVIPAQEENSLFVMTNVILTMNQTQGLCPEIPDATTVCKSDASCTAGSAGTHSNGVSTGRCVAFNGSVKTCEVAAWCPVEDDTHVPQPAFLKAAENFTLLVKNNIWYPKFNFSKRNILPNITTTYLKSCIYDAKTDPFCPIFRLGKIVENAGHSFQDMAVEGGIMGIQVNWDCNLDRAASLCLPRYSFRRLDTRDVEHNVSPGYNFRFAKYYRDLAGNEQRTLIKAYGIRFDIIVFGKAGKFDIIPTMINIGSGLALLGMATVLCDIIVLYCMKKRLYYREKKYKYVEDYEQGLASELDQ
notes: human P2X4 receptor, full-length wild type; N-glycosylated (insect-cell type); also called hP2X4; source: Sf9 cells, baculovirus-infected; in membranes, untreated or detergent-solubilised
B2: Dictyostelium discoideum P2XA-(His)6 (receptor, UniProt Q86JM7 1-378, looked up)
chain: MGFSFDWDDIFQYSTVKIVRIRDRRLGILHLSFLVGIVAYIVVYSAIIKKGYLFTEVPIGSVRTSLKGPNTFASNLTYCSNQQHNGSTYPFTPLECNYWDEQLALFPVGQDSTFTCTTRVRLSKQEANCNFTDPTCKFVDEPGSAKNIYIADIESFTILIDHTMYASSSGSQFNAVDLHGYILNQDGDEVQIDANGTSIGVSGKPDIMTIGQLLSFGGVSLDQASPVDSNVSIRYDGVVLFVFITYSNTYTYSTSDFKYVYSVQQIANTIYDVPETIILESIHSRLLYKRHGIRVIFIQTGTIGSFHFQTLLLTLVSGLGLLAVATTVVDQLAIRLLPQRKSYSSLKFQVTESMSNPMKKRITTDEGEDVLYTRIEGL
notes: P2XA receptor of Dictyostelium discoideum, full-length wild type, from a human codon-optimised cDNA; N-glycosylated (insect-cell type); also called DdP2XA; DdP2XA-(His)6; source: Sf9 cells, baculovirus-infected; in detergent-solubilised membranes, and purified (Ni-sepharose, preparative PFO-PAGE)

Molecular target: the molecule itself
Experiment: native gel or EMSA; non-denaturing PFO-PAGE (6% gels, 4% PFO) with anti-His Western blot of Sf9 membranes, untreated (Total) or solubilised in 1% (w/v) detergent (DDM, beta-OG, TX-100, FC-12, C12E8, LDAO) in TBS, 1 h on ice

Row | Protein | stoichiometry N
1 | B1 | 2 and 3
2 | B2 | 3
